In this assay the target is T1, human gastric inhibitory peptide receptor (hGIPR) (Homo sapiens, UniProt P48546).
T1 construct: expressed in transfected cells; host or cells: HEK293
T1 sequence (P48546 22-466): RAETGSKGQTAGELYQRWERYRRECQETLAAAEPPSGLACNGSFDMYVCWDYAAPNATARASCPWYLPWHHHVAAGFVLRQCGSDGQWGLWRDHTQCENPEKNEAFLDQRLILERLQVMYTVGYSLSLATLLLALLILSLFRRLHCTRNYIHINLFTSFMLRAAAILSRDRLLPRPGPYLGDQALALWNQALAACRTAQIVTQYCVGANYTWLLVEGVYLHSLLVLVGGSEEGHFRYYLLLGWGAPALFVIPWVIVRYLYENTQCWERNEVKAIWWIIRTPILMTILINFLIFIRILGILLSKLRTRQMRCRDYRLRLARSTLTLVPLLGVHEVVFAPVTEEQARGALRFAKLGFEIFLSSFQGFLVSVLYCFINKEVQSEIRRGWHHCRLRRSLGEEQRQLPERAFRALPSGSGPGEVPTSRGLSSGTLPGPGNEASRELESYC
Description: cAMP pharmacological functional assay in presence of 0.1% casein, hGIPR. The format is cell-based. As to conditions: ratio of hGIPR to hGLP1R cAMP EC50 ratios.

Consider six substances from patent publication US12295987B2, “Method of using a GIP/GLP1 co-agonist for diabetes” (Eli Lilly and Company, priority 2018, dated 2025).

Numbered stars: 1 amine (or outer) side, 2 acyl side, 3 side chain; on linkers, the order of the positions; unused ones are H or OH. Square brackets hold non-standard residues; d marks the D form. Side chains are listed from the residue outwards. Ends that are not written are not given here. * marks the point of attachment. C20 diacid = O=C(O)CCCCCCCCCCCCCCCCCCC(=O)*; γGlu = O=C(O)[C@H](CCC(=O)[*:2])N[*:1]; AEEA = NCCOCCOCC(=O)O; Aib = CC(C)(N)C(=O)O

As for “Y-Aib-EGTFTSDYSILLDKIAK((2-[2-(2-Amino-ethoxy)-ethoxy]-acetyl)2-(γGlu)-CO—(CH2)18—CO2H)-Aib-AFIEYLIEGGPSSGAPPPS-NH2 (Y[Aib]EGTFTSDYSILLDKIAK([AEEA-AEEA-γGlu-C20 diacid])[Aib]AFIEYLIEGGPSSGAPPPS-NH2; N-terminus assumed; SMILES CC[C@H](C)[C@H](NC(=O)[C@H](CCCCN)NC(=O)[C@H](CC(=O)O)NC(=O)[C@H](CC(C)C)NC(=O)[C@H](CC(C)C)NC(=O)[C@@H](NC(=O)[C@H](CO)NC(=O)[C@H](Cc1ccc(O)cc1)NC(=O)[C@H](CC(=O)O)NC(=O)[C@H](CO)NC(=O)[C@@H](NC(=O)[C@H](Cc1ccccc1)NC(=O)[C@@H](NC(=O)CNC(=O)[C@H](CCC(=O)O)NC(=O)C(C)(C)NC(=O)[C@@H](N)Cc1ccc(O)cc1)[C@@H](C)O)[C@@H](C)O)[C@@H](C)CC)C(=O)N[C@@H](C)C(=O)N[C@@H](CCCCNC(=O)COCCOCCNC(=O)COCCOCCNC(=O)CC[C@H](NC(=O)CCCCCCCCCCCCCCCCCCC(=O)O)C(=O)O)C(=O)NC(C)(C)C(=O)N[C@@H](C)C(=O)N[C@@H](Cc1ccccc1)C(=O)N[C@H](C(=O)N[C@@H](CCC(=O)O)C(=O)N[C@@H](Cc1ccc(O)cc1)C(=O)N[C@@H](CC(C)C)C(=O)N[C@H](C(=O)N[C@@H](CCC(=O)O)C(=O)NCC(=O)NCC(=O)N1CCC[C@H]1C(=O)N[C@@H](CO)C(=O)N[C@@H](CO)C(=O)NCC(=O)N[C@@H](C)C(=O)N1CCC[C@H]1C(=O)N1CCC[C@H]1C(=O)N1CCC[C@H]1C(=O)N[C@@H](CO)C(N)=O)[C@@H](C)CC)[C@@H](C)CC) [Peptide 31]”, the “[hGIPR/hGLP1R] EC50 Ratio” value worked out at 6.44.

In the case of “Y-Aib-EGTFTSDYSILLDKIAQ-Aib-AFIEYLIEGGPK((2-[2-(2-Amino-ethoxy)-ethoxy]-acetyl)2-(γGlu)-CO—(CH2)18—CO2H)SGAPPPS-NH2 (Y[Aib]EGTFTSDYSILLDKIAQ[Aib]AFIEYLIEGGPK([AEEA-AEEA-γGlu-C20 diacid])SGAPPPS-NH2; N-terminus assumed; SMILES CC[C@H](C)[C@H](NC(=O)[C@H](CCCCN)NC(=O)[C@H](CC(=O)O)NC(=O)[C@H](CC(C)C)NC(=O)[C@H](CC(C)C)NC(=O)[C@@H](NC(=O)[C@H](CO)NC(=O)[C@H](Cc1ccc(O)cc1)NC(=O)[C@H](CC(=O)O)NC(=O)[C@H](CO)NC(=O)[C@@H](NC(=O)[C@H](Cc1ccccc1)NC(=O)[C@@H](NC(=O)CNC(=O)[C@H](CCC(=O)O)NC(=O)C(C)(C)NC(=O)[C@@H](N)Cc1ccc(O)cc1)[C@@H](C)O)[C@@H](C)O)[C@@H](C)CC)C(=O)N[C@@H](C)C(=O)N[C@@H](CCC(N)=O)C(=O)NC(C)(C)C(=O)N[C@@H](C)C(=O)N[C@@H](Cc1ccccc1)C(=O)N[C@H](C(=O)N[C@@H](CCC(=O)O)C(=O)N[C@@H](Cc1ccc(O)cc1)C(=O)N[C@@H](CC(C)C)C(=O)N[C@H](C(=O)N[C@@H](CCC(=O)O)C(=O)NCC(=O)NCC(=O)N1CCC[C@H]1C(=O)N[C@@H](CCCCNC(=O)COCCOCCNC(=O)COCCOCCNC(=O)CC[C@H](NC(=O)CCCCCCCCCCCCCCCCCCC(=O)O)C(=O)O)C(=O)N[C@@H](CO)C(=O)NCC(=O)N[C@@H](C)C(=O)N1CCC[C@H]1C(=O)N1CCC[C@H]1C(=O)N1CCC[C@H]1C(=O)N[C@@H](CO)C(N)=O)[C@@H](C)CC)[C@@H](C)CC) [Peptide 41]”, the “[hGIPR/hGLP1R] EC50 Ratio” value came out at 10.00.

For “Y-Aib-EGTFTSDYSILLDKIAQ-Aib-AFIEYLIEGGPSSGAPK((2-[2-(2-Amino-ethoxy)-ethoxy]-acetyl)2-(γGlu)-CO—(CH2)18—CO2H)PS-NH2 (Y[Aib]EGTFTSDYSILLDKIAQ[Aib]AFIEYLIEGGPSSGAPK([AEEA-AEEA-γGlu-C20 diacid])PS-NH2; N-terminus assumed; SMILES CC[C@H](C)[C@H](NC(=O)[C@H](CCCCN)NC(=O)[C@H](CC(=O)O)NC(=O)[C@H](CC(C)C)NC(=O)[C@H](CC(C)C)NC(=O)[C@@H](NC(=O)[C@H](CO)NC(=O)[C@H](Cc1ccc(O)cc1)NC(=O)[C@H](CC(=O)O)NC(=O)[C@H](CO)NC(=O)[C@@H](NC(=O)[C@H](Cc1ccccc1)NC(=O)[C@@H](NC(=O)CNC(=O)[C@H](CCC(=O)O)NC(=O)C(C)(C)NC(=O)[C@@H](N)Cc1ccc(O)cc1)[C@@H](C)O)[C@@H](C)O)[C@@H](C)CC)C(=O)N[C@@H](C)C(=O)N[C@@H](CCC(N)=O)C(=O)NC(C)(C)C(=O)N[C@@H](C)C(=O)N[C@@H](Cc1ccccc1)C(=O)N[C@H](C(=O)N[C@@H](CCC(=O)O)C(=O)N[C@@H](Cc1ccc(O)cc1)C(=O)N[C@@H](CC(C)C)C(=O)N[C@H](C(=O)N[C@@H](CCC(=O)O)C(=O)NCC(=O)NCC(=O)N1CCC[C@H]1C(=O)N[C@@H](CO)C(=O)N[C@@H](CO)C(=O)NCC(=O)N[C@@H](C)C(=O)N1CCC[C@H]1C(=O)N[C@@H](CCCCNC(=O)COCCOCCNC(=O)COCCOCCNC(=O)CC[C@H](NC(=O)CCCCCCCCCCCCCCCCCCC(=O)O)C(=O)O)C(=O)N1CCC[C@H]1C(=O)N[C@@H](CO)C(N)=O)[C@@H](C)CC)[C@@H](C)CC) [Peptide 46]”, the “[hGIPR/hGLP1R] EC50 Ratio” value turned out to be 8.54.

With “Y-Aib-EGTFTSDYSILLDKIAQ-Aib-AFIEYLIEGGPSSGAPPK((2-[2-(2-Amino-ethoxy)-ethoxy]-acetyl)2-(γGlu)-CO—(CH2)18—CO2H)S-NH2 (Y[Aib]EGTFTSDYSILLDKIAQ[Aib]AFIEYLIEGGPSSGAPPK([AEEA-AEEA-γGlu-C20 diacid])S-NH2; N-terminus assumed; SMILES CC[C@H](C)[C@H](NC(=O)[C@H](CCCCN)NC(=O)[C@H](CC(=O)O)NC(=O)[C@H](CC(C)C)NC(=O)[C@H](CC(C)C)NC(=O)[C@@H](NC(=O)[C@H](CO)NC(=O)[C@H](Cc1ccc(O)cc1)NC(=O)[C@H](CC(=O)O)NC(=O)[C@H](CO)NC(=O)[C@@H](NC(=O)[C@H](Cc1ccccc1)NC(=O)[C@@H](NC(=O)CNC(=O)[C@H](CCC(=O)O)NC(=O)C(C)(C)NC(=O)[C@@H](N)Cc1ccc(O)cc1)[C@@H](C)O)[C@@H](C)O)[C@@H](C)CC)C(=O)N[C@@H](C)C(=O)N[C@@H](CCC(N)=O)C(=O)NC(C)(C)C(=O)N[C@@H](C)C(=O)N[C@@H](Cc1ccccc1)C(=O)N[C@H](C(=O)N[C@@H](CCC(=O)O)C(=O)N[C@@H](Cc1ccc(O)cc1)C(=O)N[C@@H](CC(C)C)C(=O)N[C@H](C(=O)N[C@@H](CCC(=O)O)C(=O)NCC(=O)NCC(=O)N1CCC[C@H]1C(=O)N[C@@H](CO)C(=O)N[C@@H](CO)C(=O)NCC(=O)N[C@@H](C)C(=O)N1CCC[C@H]1C(=O)N1CCC[C@H]1C(=O)N[C@@H](CCCCNC(=O)COCCOCCNC(=O)COCCOCCNC(=O)CC[C@H](NC(=O)CCCCCCCCCCCCCCCCCCC(=O)O)C(=O)O)C(=O)N[C@@H](CO)C(N)=O)[C@@H](C)CC)[C@@H](C)CC) [Peptide 47]”, the “[hGIPR/hGLP1R] EC50 Ratio” value stood at 7.35.

Regarding “Y-Aib-EGTFTSDYSILLDKIAQ-Aib-AFIEYLIEGGPSSGAPPPK((2-[2-(2-Amino-ethoxy)-ethoxy]-acetyl)2-(γGlu)-CO—(CH2)18—CO2H)—NH2 (Y[Aib]EGTFTSDYSILLDKIAQ[Aib]AFIEYLIEGGPSSGAPPPK([AEEA-AEEA-γGlu-C20 diacid])-NH2; N-terminus assumed; SMILES CC[C@H](C)[C@H](NC(=O)[C@H](CCCCN)NC(=O)[C@H](CC(=O)O)NC(=O)[C@H](CC(C)C)NC(=O)[C@H](CC(C)C)NC(=O)[C@@H](NC(=O)[C@H](CO)NC(=O)[C@H](Cc1ccc(O)cc1)NC(=O)[C@H](CC(=O)O)NC(=O)[C@H](CO)NC(=O)[C@@H](NC(=O)[C@H](Cc1ccccc1)NC(=O)[C@@H](NC(=O)CNC(=O)[C@H](CCC(=O)O)NC(=O)C(C)(C)NC(=O)[C@@H](N)Cc1ccc(O)cc1)[C@@H](C)O)[C@@H](C)O)[C@@H](C)CC)C(=O)N[C@@H](C)C(=O)N[C@@H](CCC(N)=O)C(=O)NC(C)(C)C(=O)N[C@@H](C)C(=O)N[C@@H](Cc1ccccc1)C(=O)N[C@H](C(=O)N[C@@H](CCC(=O)O)C(=O)N[C@@H](Cc1ccc(O)cc1)C(=O)N[C@@H](CC(C)C)C(=O)N[C@H](C(=O)N[C@@H](CCC(=O)O)C(=O)NCC(=O)NCC(=O)N1CCC[C@H]1C(=O)N[C@@H](CO)C(=O)N[C@@H](CO)C(=O)NCC(=O)N[C@@H](C)C(=O)N1CCC[C@H]1C(=O)N1CCC[C@H]1C(=O)N1CCC[C@H]1C(=O)N[C@@H](CCCCNC(=O)COCCOCCNC(=O)COCCOCCNC(=O)CC[C@H](NC(=O)CCCCCCCCCCCCCCCCCCC(=O)O)C(=O)O)C(N)=O)[C@@H](C)CC)[C@@H](C)CC) [Peptide 48]”, the “[hGIPR/hGLP1R] EC50 Ratio” value was 8.93.

For “Y-Aib-EGTFTSDYSILLDKIAQ-Aib-AFIEYLIK((2-[2-(2-Amino-ethoxy)-ethoxy]-acetyl)2-(γGlu)-CO—(CH2)18—CO2H)GG-NH2 (Y[Aib]EGTFTSDYSILLDKIAQ[Aib]AFIEYLIK([AEEA-AEEA-γGlu-C20 diacid])GG-NH2; N-terminus assumed; SMILES CC[C@H](C)[C@H](NC(=O)[C@H](CCCCN)NC(=O)[C@H](CC(=O)O)NC(=O)[C@H](CC(C)C)NC(=O)[C@H](CC(C)C)NC(=O)[C@@H](NC(=O)[C@H](CO)NC(=O)[C@H](Cc1ccc(O)cc1)NC(=O)[C@H](CC(=O)O)NC(=O)[C@H](CO)NC(=O)[C@@H](NC(=O)[C@H](Cc1ccccc1)NC(=O)[C@@H](NC(=O)CNC(=O)[C@H](CCC(=O)O)NC(=O)C(C)(C)NC(=O)[C@@H](N)Cc1ccc(O)cc1)[C@@H](C)O)[C@@H](C)O)[C@@H](C)CC)C(=O)N[C@@H](C)C(=O)N[C@@H](CCC(N)=O)C(=O)NC(C)(C)C(=O)N[C@@H](C)C(=O)N[C@@H](Cc1ccccc1)C(=O)N[C@H](C(=O)N[C@@H](CCC(=O)O)C(=O)N[C@@H](Cc1ccc(O)cc1)C(=O)N[C@@H](CC(C)C)C(=O)N[C@H](C(=O)N[C@@H](CCCCNC(=O)COCCOCCNC(=O)COCCOCCNC(=O)CC[C@H](NC(=O)CCCCCCCCCCCCCCCCCCC(=O)O)C(=O)O)C(=O)NCC(=O)NCC(N)=O)[C@@H](C)CC)[C@@H](C)CC) [Peptide 73]”, the “[hGIPR/hGLP1R] EC50 Ratio” value was found to be 7.73.
